# Results published in publication PMC6992768, “Loss-of-function mutations in UDP-Glucose 6-Dehydrogenase cause recessive developmental epileptic encephalopathy” (Nature Communications, 2020).
# Residue numbers refer to the chain shown, from its start. Numbers in names are those of the source.
# B1: UGDH A44V (enzyme, human, UniProt O60701 1-494, looked up)
# chain: MFEIKKICCIGAGYVGGPTCSVIAHMCPEIRVTVVDVNESRINVWNSPTLPIYEPGLKEVVESCRGKNLFFSTNIDDAIKEADLVFISVNTPTKTYGMGKGRAADLKYIEACARRIVQNSNGYKIVTEKSTVPVRAAESIRRIFDANTKPNLNLQVLSNPEFLAEGTAIKDLKNPDRVLIGGDETPEGQRAVQALCAVYEHWVPREKILTTNTWSSELSKLAANAFLAQRISSINSISALCEATGADVEEVATAIGMDQRIGNKFLKASVGFGGSCFQKDVLNLVYLCEALNLPEVARYWQQVIDMNDYQRRRFASRIIDSLFNTVTDKKIAILGFAFKKDTGDTRESSSIYISKYLMDEGAHLHIYDPKVPREQIVVDLSHPGVSEDDQVSRLVTISKDPYEACDGAHAVVICTEWDMFKELDYERIHKKMLKPAFIFDGRRVLDGLHNELQTIGFQIETIGKKVSSKRIPYAPSGEIPKFSLQDPPNKKPKV
# notes: human UDP-glucose 6-dehydrogenase (UGDH) with the patient variant A44V, made from WT-UGDH pET28a; Germline variant found in patients (families 1, 11, 13); Eluted mainly as a dimer by gel filtration; also called p.A44V; p.Ala44Val
# B2: UDP-Glucose 6-Dehydrogenase (UGDH), wild type (enzyme, human, UniProt O60701 1-494, looked up)
# chain: B1 chain with V44A
# notes: human UDP-glucose 6-dehydrogenase (UGDH), codon-optimised E. coli expression construct WT-UGDH pET28a; also called UGDH^WT; WT-UGDH
# B3: UGDH T325D (enzyme, human, UniProt O60701 1-494, looked up)
# chain: B1 chain with V44A, T325D
# notes: human UDP-glucose 6-dehydrogenase (UGDH) with T325D, made from WT-UGDH pET28a
# B4: UGDH ∆132 (enzyme, human, UniProt O60701 1-494, looked up)
# chain: MFEIKKICCIGAGYVGGPTCSVIAHMCPEIRVTVVDVNESRINAWNSPTLPIYEPGLKEVVESCRGKNLFFSTNIDDAIKEADLVFISVNTPTKTYGMGKGRAADLKYIEACARRIVQNSNGYKIVTEKSTPVRAAESIRRIFDANTKPNLNLQVLSNPEFLAEGTAIKDLKNPDRVLIGGDETPEGQRAVQALCAVYEHWVPREKILTTNTWSSELSKLAANAFLAQRISSINSISALCEATGADVEEVATAIGMDQRIGNKFLKASVGFGGSCFQKDVLNLVYLCEALNLPEVARYWQQVIDMNDYQRRRFASRIIDSLFNTVTDKKIAILGFAFKKDTGDTRESSSIYISKYLMDEGAHLHIYDPKVPREQIVVDLSHPGVSEDDQVSRLVTISKDPYEACDGAHAVVICTEWDMFKELDYERIHKKMLKPAFIFDGRRVLDGLHNELQTIGFQIETIGKKVSSKRIPYAPSGEIPKFSLQDPPNKKPKV
# notes: source: purified recombinant; expression not described for this mutant
# Target: the molecule itself
# Assay: SEC; analytical gel filtration of each apoprotein alone; 1x PBS with 1 mM DTT, 0.5 mL/min, Superdex gel filtration column, elution followed by A280; peaks compared with known hexamer, dimer and monomer elution times
Protein,stoichiometry N,binding result
B1,2,–
B2,–,binds
B3,–,binds
B4,–,binds
